Target: human CD3epsilon/delta-Fc fusion protein (heterodimer of CD3epsilon and CD3delta extracellular domains fused to human IgG Fc) (human) (UniProt P04234)
Assay: Biacore

human CD3epsilon/delta-Fc fusion protein (heterodimer of CD3epsilon and CD3delta extracellular domains fused to human IgG Fc) (human), sequence (chain, as listed by the source mutant, chain 1 of 2): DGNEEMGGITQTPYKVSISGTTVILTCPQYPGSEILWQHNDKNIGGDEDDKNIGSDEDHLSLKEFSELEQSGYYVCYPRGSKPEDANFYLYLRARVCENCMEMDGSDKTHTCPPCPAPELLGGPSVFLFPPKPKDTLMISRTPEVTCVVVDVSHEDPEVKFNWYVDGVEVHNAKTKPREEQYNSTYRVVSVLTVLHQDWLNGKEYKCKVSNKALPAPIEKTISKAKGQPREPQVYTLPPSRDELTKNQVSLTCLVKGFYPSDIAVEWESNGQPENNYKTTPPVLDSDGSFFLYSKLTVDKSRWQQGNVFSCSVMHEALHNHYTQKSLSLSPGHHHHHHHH
human CD3epsilon/delta-Fc fusion protein (heterodimer of CD3epsilon and CD3delta extracellular domains fused to human IgG Fc) (human), sequence (P04234 22-105, stated change not applied, chain 2 of 2): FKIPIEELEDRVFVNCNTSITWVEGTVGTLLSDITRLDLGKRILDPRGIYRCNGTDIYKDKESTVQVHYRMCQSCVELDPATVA

Single chain antibody DART format MGD006 (CD123xCD3 bi-specific diabody) (bispecific antibody)
Kd: 9 nM

From US20190241657A1
